In patent US20160368965A1 (IMMATICS BIOTECHNOLOGIES, published 2016):

Target: T1, HLA-A*02:01 (human)
T1 construct: the tested peptide takes its place; also called peptide-receptive MHC molecules; MHC class I
Assay: UV-ligand exchange, anti-β2m ELISA; grade of peptide exchange yield
Source text: Candidate peptides for T cell based therapies according to the present invention were further tested for their MHC binding capacity (affinity). The individual peptide-MHC complexes were produced by UV-ligand exchange, where a UV-sensitive peptide is cleaved upon UV-irradiation, and exchanged with the peptide of interest as analyzed. Only peptide candidates that can effectively bind and stabilize the peptide-receptive MHC molecules prevent dissociation of the MHC complexes. To determine the yield of the exchange reaction, an ELISA was performed based on the detection of the light chain (β2m) of stabilized MHC complexes. The assay was performed as generally described in Rodenko et al. (Rodenko et al., 2006).
96 well MAXISorp plates (NUNC) were coated over night with 2 ug/ml streptavidin in PBS at room temperature, washed 4× and blocked for 1h at 37° C. in 2% BSA containing blocking buffer. Refolded HLA-A*02:01/MLA-001 monomers served as standards, covering the range of 15-500 ng/ml. Peptide-MHC monomers of the UV-exchange reaction were diluted 100 fold in blocking buffer. Samples were incubated for 1 h at 37° C., washed four times, incubated with 2 ug/ml HRP conjugated anti-β2m for 1h at 37° C., washed again and detected with TMB solution that is stopped with […]. Absorption was measured at 450 nm. […]

SLTEQVHSL [SLTEQVHSL (SEQ ID NO: 141)]
peptide exchange yield: 50 to 75%
